From US20140087995A1 (published 2014)
Numbering of substitutions follows the chain as printed. Numbered stars: 1 amine (or outer) side, 2 acyl side, 3 side chain; on linkers, the order of the positions; unused ones are H or OH. Bridge positions count the residues as written; N and C are the ends. * marks the point of attachment. C20 diacid = O=C(O)CCCCCCCCCCCCCCCCCCC(=O)*; γGlu = O=C(O)[C@H](CCC(=O)[*:2])N[*:1]

B1: N^α1 N^α1-[(4S)-4-carboxy-4-[[(4S)-4-carboxy-4-(19-carboxynonadecanoylamino)butanoyl]amino]butanoyl]-[Glu14,Arg17,Pro21,Pro27]-h-amylin (peptide)
peptide: {C20 diacid-γGlu-γGlu}-KCNTATCATQRLAEFLRHSSPNFGAIPSSTNVGSNTY-NH2
modifications: disulfide 2-7
SMILES: CC[C@H](C)[C@H](NC(=O)[C@H](C)NC(=O)CNC(=O)[C@H](Cc1ccccc1)NC(=O)[C@H](CC(N)=O)NC(=O)[C@@H]1CCCN1C(=O)[C@H](CO)NC(=O)[C@H](CO)NC(=O)[C@H](Cc1c[nH]cn1)NC(=O)[C@H](CCCNC(=N)N)NC(=O)[C@H](CC(C)C)NC(=O)[C@H](Cc1ccccc1)NC(=O)[C@H](CCC(=O)O)NC(=O)[C@H](C)NC(=O)[C@H](CC(C)C)NC(=O)[C@H](CCCNC(=N)N)NC(=O)[C@H](CCC(N)=O)NC(=O)[C@@H](NC(=O)[C@H](C)NC(=O)[C@@H]1CSSC[C@H](NC(=O)[C@H](CCCCN)NC(=O)CC[C@H](NC(=O)CC[C@H](NC(=O)CCCCCCCCCCCCCCCCCCC(=O)O)C(=O)O)C(=O)O)C(=O)N[C@@H](CC(N)=O)C(=O)N[C@@H]([C@@H](C)O)C(=O)N[C@@H](C)C(=O)N[C@@H]([C@@H](C)O)C(=O)N1)[C@@H](C)O)C(=O)N1CCC[C@H]1C(=O)N[C@@H](CO)C(=O)N[C@@H](CO)C(=O)N[C@H](C(=O)N[C@@H](CC(N)=O)C(=O)N[C@H](C(=O)NCC(=O)N[C@@H](CO)C(=O)N[C@@H](CC(N)=O)C(=O)N[C@H](C(=O)N[C@@H](Cc1ccc(O)cc1)C(N)=O)[C@@H](C)O)C(C)C)[C@@H](C)O
notes: also called compound 15
B2: N^α1-[2-[2-[2-[[2-[2-[2-[[(4S)-4-carboxy-4-(19-carboxynonadecanoylamino)butanoyl]amino]ethoxy]ethoxy]acetyl]amino]ethoxy]ethoxy]acetyl]-[Glu14,Arg17,Pro21,Pro27 … (peptide)
peptide: KCNTATCATQRLAEFLRHSSPNFGAIPSSTNVGSNTY
modifications: C20 diacid-gGlu-2xOEG on the alpha amino group of the N-terminal Lys1; disulfide Cys2-Cys7; C-terminal amide
notes: also called compound 19
B3: N^α1-[(4S)-4-carboxy-4-(19-carboxynonadecanoylamino)butanoyl]-[Arg17,Pro21,Pro27,Arg34]-h-amylin (peptide)
peptide: B2 peptide with E14N, S34R
modifications: C20 diacid-gGlu on the alpha amino group of the N-terminal Lys1; disulfide Cys2-Cys7; C-terminal amide
notes: also called compound 39
B4: N^α1-[(4S)-4-carboxy-4-(19-carboxynonadecanoylamino)butanoyl]-[Arg17,Pro21,Pro27,Glu35]-h-amylin (peptide)
peptide: B2 peptide with E14N, N35E
modifications: C20 diacid-gGlu on the alpha amino group of the N-terminal Lys1; disulfide Cys2-Cys7; C-terminal amide
notes: also called compound 23
B5: N^α1-[(4S)-4-carboxy-4-(19-carboxynonadecanoylamino)butanoyl]-[Arg17,Pro21,Pro27,His34]-h-amylin (peptide)
peptide: B2 peptide with E14N, S34H
modifications: C20 diacid-gGlu on the alpha amino group of the N-terminal Lys1; disulfide Cys2-Cys7; C-terminal amide
notes: also called compound 40
B6: N^α1-[(4S)-4-carboxy-4-(19-carboxynonadecanoylamino)butanoyl]-[Arg17,Pro21,Pro27,Lys35]-h-amylin (peptide)
peptide: B2 peptide with E14N, N35K
modifications: C20 diacid-gGlu on the alpha amino group of the N-terminal Lys1; disulfide Cys2-Cys7; C-terminal amide
notes: also called compound 34
B7: N^α1-[(4S)-4-carboxy-4-(19-carboxynonadecanoylamino)butanoyl]-[Arg17,Pro21,Pro27,Pro31,Glu35]-h-amylin (peptide)
peptide: {C20 diacid-γGlu}-KCNTATCATQRLANFLRHSSPNFGAIPSSTPVGSETY-NH2
modifications: disulfide 2-7
SMILES: CC[C@H](C)[C@H](NC(=O)[C@H](C)NC(=O)CNC(=O)[C@H](Cc1ccccc1)NC(=O)[C@H](CC(N)=O)NC(=O)[C@@H]1CCCN1C(=O)[C@H](CO)NC(=O)[C@H](CO)NC(=O)[C@H](Cc1c[nH]cn1)NC(=O)[C@H](CCCNC(=N)N)NC(=O)[C@H](CC(C)C)NC(=O)[C@H](Cc1ccccc1)NC(=O)[C@H](CC(N)=O)NC(=O)[C@H](C)NC(=O)[C@H](CC(C)C)NC(=O)[C@H](CCCNC(=N)N)NC(=O)[C@H](CCC(N)=O)NC(=O)[C@@H](NC(=O)[C@H](C)NC(=O)[C@@H]1CSSC[C@H](NC(=O)[C@H](CCCCN)NC(=O)CC[C@H](NC(=O)CCCCCCCCCCCCCCCCCCC(=O)O)C(=O)O)C(=O)N[C@@H](CC(N)=O)C(=O)N[C@@H]([C@@H](C)O)C(=O)N[C@@H](C)C(=O)N[C@@H]([C@@H](C)O)C(=O)N1)[C@@H](C)O)C(=O)N1CCC[C@H]1C(=O)N[C@@H](CO)C(=O)N[C@@H](CO)C(=O)N[C@H](C(=O)N1CCC[C@H]1C(=O)N[C@H](C(=O)NCC(=O)N[C@@H](CO)C(=O)N[C@@H](CCC(=O)O)C(=O)N[C@H](C(=O)N[C@@H](Cc1ccc(O)cc1)C(N)=O)[C@@H](C)O)C(C)C)[C@@H](C)O
notes: also called compound 28
B8: N^α1-[(4S)-4-carboxy-4-(19-carboxynonadecanoylamino)butanoyl]-[Glu14,Arg17,Pro21,Pro26]-h-amylin (peptide)
peptide: {C20 diacid-γGlu}-KCNTATCATQRLAEFLRHSSPNFGAPLSSTNVGSNTY-NH2
modifications: disulfide 2-7
SMILES: CC(C)C[C@H](NC(=O)[C@H](CCCNC(=N)N)NC(=O)[C@H](CCC(N)=O)NC(=O)[C@@H](NC(=O)[C@H](C)NC(=O)[C@@H]1CSSC[C@H](NC(=O)[C@H](CCCCN)NC(=O)CC[C@H](NC(=O)CCCCCCCCCCCCCCCCCCC(=O)O)C(=O)O)C(=O)N[C@@H](CC(N)=O)C(=O)N[C@@H]([C@@H](C)O)C(=O)N[C@@H](C)C(=O)N[C@@H]([C@@H](C)O)C(=O)N1)[C@@H](C)O)C(=O)N[C@@H](C)C(=O)N[C@@H](CCC(=O)O)C(=O)N[C@@H](Cc1ccccc1)C(=O)N[C@@H](CC(C)C)C(=O)N[C@@H](CCCNC(=N)N)C(=O)N[C@@H](Cc1c[nH]cn1)C(=O)N[C@@H](CO)C(=O)N[C@@H](CO)C(=O)N1CCC[C@H]1C(=O)N[C@@H](CC(N)=O)C(=O)N[C@@H](Cc1ccccc1)C(=O)NCC(=O)N[C@@H](C)C(=O)N1CCC[C@H]1C(=O)N[C@@H](CC(C)C)C(=O)N[C@@H](CO)C(=O)N[C@@H](CO)C(=O)N[C@H](C(=O)N[C@@H](CC(N)=O)C(=O)N[C@H](C(=O)NCC(=O)N[C@@H](CO)C(=O)N[C@@H](CC(N)=O)C(=O)N[C@H](C(=O)N[C@@H](Cc1ccc(O)cc1)C(N)=O)[C@@H](C)O)C(C)C)[C@@H](C)O
notes: also called compound 7
B9: N^α1-[(4S)-4-carboxy-4-(19-carboxynonadecanoylamino)butanoyl]-[Glu14,Arg17,Pro21,Pro27,Arg35]-h-amylin (peptide)
peptide: {C20 diacid-γGlu}-KCNTATCATQRLAEFLRHSSPNFGAIPSSTNVGSRTY-NH2
modifications: disulfide 2-7
SMILES: CC[C@H](C)[C@H](NC(=O)[C@H](C)NC(=O)CNC(=O)[C@H](Cc1ccccc1)NC(=O)[C@H](CC(N)=O)NC(=O)[C@@H]1CCCN1C(=O)[C@H](CO)NC(=O)[C@H](CO)NC(=O)[C@H](Cc1c[nH]cn1)NC(=O)[C@H](CCCNC(=N)N)NC(=O)[C@H](CC(C)C)NC(=O)[C@H](Cc1ccccc1)NC(=O)[C@H](CCC(=O)O)NC(=O)[C@H](C)NC(=O)[C@H](CC(C)C)NC(=O)[C@H](CCCNC(=N)N)NC(=O)[C@H](CCC(N)=O)NC(=O)[C@@H](NC(=O)[C@H](C)NC(=O)[C@@H]1CSSC[C@H](NC(=O)[C@H](CCCCN)NC(=O)CC[C@H](NC(=O)CCCCCCCCCCCCCCCCCCC(=O)O)C(=O)O)C(=O)N[C@@H](CC(N)=O)C(=O)N[C@@H]([C@@H](C)O)C(=O)N[C@@H](C)C(=O)N[C@@H]([C@@H](C)O)C(=O)N1)[C@@H](C)O)C(=O)N1CCC[C@H]1C(=O)N[C@@H](CO)C(=O)N[C@@H](CO)C(=O)N[C@H](C(=O)N[C@@H](CC(N)=O)C(=O)N[C@H](C(=O)NCC(=O)N[C@@H](CO)C(=O)N[C@@H](CCCNC(=N)N)C(=O)N[C@H](C(=O)N[C@@H](Cc1ccc(O)cc1)C(N)=O)[C@@H](C)O)C(C)C)[C@@H](C)O
notes: also called compound 16

Biological target: T1, human calcitonin receptor (human, UniProt P30988 25-474)
T1 construct: whole, on cells; Used as cell membranes prepared from the transfected BHK cells (Assay VII), not as intact cells; also called hCTR; hCT
T1 sequence (looked up): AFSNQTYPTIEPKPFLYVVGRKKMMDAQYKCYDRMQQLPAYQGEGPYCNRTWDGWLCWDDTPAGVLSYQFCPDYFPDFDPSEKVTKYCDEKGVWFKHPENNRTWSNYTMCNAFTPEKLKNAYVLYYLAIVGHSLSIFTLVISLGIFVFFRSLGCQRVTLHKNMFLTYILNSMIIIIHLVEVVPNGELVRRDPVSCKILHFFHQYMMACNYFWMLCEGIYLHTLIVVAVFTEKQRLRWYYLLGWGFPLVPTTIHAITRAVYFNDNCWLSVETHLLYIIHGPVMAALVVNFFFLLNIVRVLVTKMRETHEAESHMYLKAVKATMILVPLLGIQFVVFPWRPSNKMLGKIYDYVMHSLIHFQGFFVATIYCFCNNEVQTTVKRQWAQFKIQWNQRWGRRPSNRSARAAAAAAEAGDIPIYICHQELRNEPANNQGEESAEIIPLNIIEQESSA
Assay: SPA competition against 125I-calcitonin, membranes with human calcitonin receptor (Assay VII)
Description: Membranes were prepared in the following way; the cells were rinsed with PBS and incubated with Versene for approximately 5 min before harvesting. The cells were flushed with PBS and the cell-suspension was centrifuged for 5 min at 1000 rpm. Cells were homogenized (Ultrathurrax) in a buffer containing 20 mM Na-HEPES and 10 mM EDTA (pH 7.4) and centrifuged at 20.000 rpm for 15 min. The resulting pellet was resuspended, homogenized and centrifuged (20.000 rpm, 15 min) in a buffer containing 20 mM Na-HEPES and 0.1 mM EDTA (pH 7.4, buffer 2). The resulting pellet was resuspended in buffer 2 and protein concentration was measured (BCA protein Assay, Pierce). The homogenate was kept cold during the whole procedure. The membranes were kept at −80° C. until use. Assay was performed in a 384 well Optiplate (PerkinElmer) in a total volume of 40 ul. Membranes were mixed with SPA beads. Final concentration of membranes 35 ng/μL final and Final concentration of SPA beads was 0.05 mg/well. Test-compounds were dissolved in DMSO and further diluted in assay buffer (50 mM Hepes, pH 7.4, 1 mM CaCl2, 5 mM MgCl₂, 0.1% OA and 0.02% Tween20). […] The final mixture was incubated for 120 min with shaking at 400 rpm at 25° C. prior to centrifugation (1500 rpm, 10 min). Samples were analyzed on TopCounter™ (Packard). The […] was calculated using (one site binding competition analysis) GraphPad Prism5 as a measure of receptor affinity.

Row | Binder | IC50 [nM]
1 | B1 | 15.5
2 | B2 | 20.4
3 | B3 | 19.3
4 | B4 | 21.8
5 | B5 | 17.1
6 | B6 | 73.4
7 | B7 | 12.5
8 | B8 | 11.1
9 | B9 | 17.1
